Consider eight molecules from article PMC11551737, “Structural and functional insights into the interaction between the bacteriophage T4 DNA processing proteins gp32 and Dda” (Nucleic Acids Research, 2024).

Data set [1] has as its target T1, Dda-K38A/dT20 (Enterobacteria phage T4, UniProt P32270, K38A).
T1 construct: made in house
In kind it is binding, bacteriophage T4. The conditions noted are these: SPR analysis 1, peptides up to 100 μM, 25°C. A general note: Surface plasmon resonance follows binding to a sensor surface in real time, without labels.
Protocol: These experiments were conducted at 25°C using a Biacore 3000 optical biosensor (Cytiva). […] The chip was primed in chelating buffer (10 mM HEPES pH 7.4, 150 mM NaCl, 50 μM EDTA, 0.005% Tween20) and was preconditioned at 10 μl/min with three 60 s injections of wash buffer (10 mM HEPES pH 8.3, 150 mM NaCl, 350 mM EDTA, 0.05% Tween20) and one 60 s injection of chelating buffer before being charged with a 60 s injection of 500 μM NiCl2 in chelating buffer. […] Any remaining active sites were blocked by Tris molecules in the binding analysis buffer (20 mM Tris-acetate pH 8.0, 150 mM NaCl, 10 mM magnesium acetate, 3 mM potassium glutamate, 1 mM TCEP, 0.05% Tween20, 10% glycerol). One flow cell on the chip was charged with Ni^2+ and activated with EDC/NHS without adding protein to be used as a reference cell. gp32 C-terminal peptides were prepared in binding analysis buffer as a 4-fold dilution series at maximum concentration 100 μM for screening and were injected at a flow rate of 75 μl/min. […] The data were processed, double-referenced and analyzed using the software package Scrubber2 (version 2.0c, BioLogic Software). The equilibrium dissociation constants (KD) were determined using steady-state analysis, specifically an equilibrium affinity analysis to fit the data to a 1:1 (Langmuir) interaction model.

In data set [2] the target is bacteriophage T4 gp32 single-stranded DNA-binding protein, full length, His-tagged (bacteriophage T4) (UniProt P03695). In words: AUC; sedimentation velocity, 20°C, 42 000 rpm; 20 mM Tris pH 7.0, 200 mM NaCl, 0.5 mM EDTA, 5 mM β-mercaptoethanol; gp32 at 11.10 μM.
For data set [3], the target named is T2, gp32 C-terminal peptide 248-270;Dda-K38A (bacteriophage T4;bacteriophage T4, UniProt P03695;P32270 248-270;1-439, |K38A).
T2 sequence 1: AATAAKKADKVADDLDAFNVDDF
T2 sequence 2: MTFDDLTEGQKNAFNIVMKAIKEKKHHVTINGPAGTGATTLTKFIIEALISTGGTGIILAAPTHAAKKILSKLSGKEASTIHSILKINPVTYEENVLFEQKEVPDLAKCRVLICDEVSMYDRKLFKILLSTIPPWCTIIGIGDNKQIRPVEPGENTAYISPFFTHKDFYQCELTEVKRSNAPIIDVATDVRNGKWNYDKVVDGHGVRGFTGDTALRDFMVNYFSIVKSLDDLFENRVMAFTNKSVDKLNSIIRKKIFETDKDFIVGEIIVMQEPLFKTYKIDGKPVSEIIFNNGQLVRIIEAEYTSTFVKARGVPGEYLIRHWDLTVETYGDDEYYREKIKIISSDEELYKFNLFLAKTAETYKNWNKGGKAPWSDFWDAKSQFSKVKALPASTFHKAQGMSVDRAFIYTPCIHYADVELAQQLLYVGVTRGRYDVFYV
As to the kind of experiment: crystal structure; 3.53 A; peptide contacts Dda; EMSA: 25 mM HEPES pH 7.5, 5 mM MgCl2, 0.1 mM EDTA, 2 mM 2-mercaptoethanol, 1 mg/ml BSA, 5% glycerol, 10 or 150 mM NaCl, room temperature (gel 4 C); gel filtration: 20 mM Tris-HCl pH 7.0, 200 mM NaCl (50 mM for crystallization), 0.5 mM EDTA, 5 mM 2-mercaptoethanol. As to conditions: tags: ;6xHis (stated for SPR); copies: 1;1; single strand. In general terms: A gel shift assay detects complexes by their altered migration in electrophoresis.

Data set [4] has as its target T3, gp32 His-tagged;Dda-K38A (bacteriophage T4;bacteriophage T4, UniProt P03695;P32270 1-301;1-439, |K38A).
T3 sequence 1: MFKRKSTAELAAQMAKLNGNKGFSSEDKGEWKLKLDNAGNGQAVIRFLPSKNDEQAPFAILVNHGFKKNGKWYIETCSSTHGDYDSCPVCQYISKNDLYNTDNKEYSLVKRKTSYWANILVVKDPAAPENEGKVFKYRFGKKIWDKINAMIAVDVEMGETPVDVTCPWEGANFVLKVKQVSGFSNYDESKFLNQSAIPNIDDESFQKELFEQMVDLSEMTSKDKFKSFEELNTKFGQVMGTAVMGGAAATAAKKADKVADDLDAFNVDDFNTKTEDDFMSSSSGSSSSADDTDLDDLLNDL
T3 sequence 2: T2 sequence 2
In words: gel filtration; complex stably formed; EMSA: 25 mM HEPES pH 7.5, 5 mM MgCl2, 0.1 mM EDTA, 2 mM 2-mercaptoethanol, 1 mg/ml BSA, 5% glycerol, 10 or 150 mM NaCl, room temperature (gel 4 C); gel filtration: 20 mM Tris-HCl pH 7.0, 200 mM NaCl (50 mM for crystallization), 0.5 mM EDTA, 5 mM 2-mercaptoethanol. As to conditions: protein: recombinant;recombinant; tags: N-terminal 6xHis;6xHis (stated for SPR); copies: 1;1; single strand. (In general: SEC sorts molecules by how far they enter the pores of the column.)

In data set [5] the target is T3, gp32 His-tagged;Dda-K38A. In words: gel filtration; 50 mM NaCl; purified complex crystallized; EMSA: 25 mM HEPES pH 7.5, 5 mM MgCl2, 0.1 mM EDTA, 2 mM 2-mercaptoethanol, 1 mg/ml BSA, 5% glycerol, 10 or 150 mM NaCl, room temperature (gel 4 C); gel filtration: 20 mM Tris-HCl pH 7.0, 200 mM NaCl (50 mM for crystallization), 0.5 mM EDTA, 5 mM 2-mercaptoethanol. The conditions noted are these: protein: recombinant;recombinant; tags: N-terminal 6xHis;6xHis (stated for SPR); copies: 1;1; single strand.

The target in data set [6] is T3, gp32 His-tagged;Dda-K38A. In words: gel filtration, SDS-PAGE and agarose gel; 200 mM NaCl; EMSA: 25 mM HEPES pH 7.5, 5 mM MgCl2, 0.1 mM EDTA, 2 mM 2-mercaptoethanol, 1 mg/ml BSA, 5% glycerol, 10 or 150 mM NaCl, room temperature (gel 4 C); gel filtration: 20 mM Tris-HCl pH 7.0, 200 mM NaCl (50 mM for crystallization), 0.5 mM EDTA, 5 mM 2-mercaptoethanol. As to conditions: protein: recombinant;recombinant; tags: N-terminal 6xHis;6xHis (stated for SPR); copies: 1;1; single strand.

The test system of data set [7] is wild-type Dda. In words: Dda-dependent DNA unwinding assay with gp32 variants (fluorescein-quenched replication fork substrate, no annealing trap). It is filed as biochemical, bacteriophage T4. The conditions noted are these: 375 nM gp32 variant, 25 nM wild-type Dda, 25 nM substrate, 2.5 mM ATP, triplicate experiments. As to the method:
A partial duplex substrate mimicking a replication fork was prepared by mixing equimolar concentrations of the following oligonucleotides: loading strand - […]/36-FAM/, displaced strand - […], and leading strand - […] in 10 mM HEPES/1 mM EDTA. The sample was heated to 95°C for 5 min, followed by slowly cooling to room temperature. All concentrations are final, after mixing. ATP (2.5 mM), Mg(OAc)2 (5 mM) and gp32 (375 nM) in assay buffer (25 mM HEPES, pH 7.5, 10 mM KOAc, 0.1 mM EDTA, 2 mM β-mercaptoethanol, 1 mg/ml bovine serum albumin and 4 mM phosphoenol pyruvate) were mixed and added to wells in one row of a black 96-well plate. The reactions were initiated by adding 25 nM substrate, 25 nM wild-type Dda and 5 U/ml pyruvate kinase/lactate dehydrogenase in assay buffer with a multichannel pipette to the entire row simultaneously. Fluorescein fluorescence was measured 8 times per minute in a VICTOR Nivo Multimode Plate Reader (Perkin Elmer) at room temperature with excitation through a 480/30 nm bandpass filter and emission measured after a 530/30 nm bandpass filter.

In data set [8] the test system is Dda binding to ssDNA (5′F-T30). As to the kind of experiment: Electrophoretic mobility shift assay of Dda binding to 5′F-T30 ssDNA with or without gp32. As to conditions: EMSA, 5 nM 5′F-T30, 100 nM gp32, 10 mM or 150 mM NaCl, 10 min room temperature; three independent sets, Hill fit. Further details: species or system bacteriophage T4. As to the method:
Varying amounts of Dda were mixed with 5 nM 5′F-T30 with or without 100 nM gp32 in 25 mM HEPES, pH 7.5, 5 mM MgCl2, 0.1 mM EDTA, 2 mM β-mercaptoethanol, 1 mg/ml bovine serum albumin, 5% glycerol, 0.05% Orange G and either 10 mM NaCl or 150 mM NaCl. Samples were incubated at room temperature in the dark for 10 min before separating on a 6% 100:1 acrylamide:bisacrylamide gel at 4°C. Gels were imaged on an Amersham Typhoon RGB Imager (Cytiva) with excitation using a 488 nm laser and emission measured after a 525BP20 filter. Data were quantified using ImageQuant software (GE Healthcare) and fit to the Hill equation.
Figure S6. gp32 enhances the affinity of Dda for ssDNA. (A) Electrophoretic mobility shift assays (EMSAs) of 5 nM 5′-F-T30 with increasing concentrations of Dda at 10 mM NaCl and 150 mM NaCl. (B) EMSAs of 5 nM 5′-F-T30 with 100 nM gp32 and increasing concentrations of Dda at 10 mM NaCl and 150 mM NaCl. ( C) The fraction of Dda bound DNA from three independent sets of EMSAs is plotted (average and standard deviation) and fit to the Hill equation. (D) The average and standard deviation of the apparent K d for each condition are given.
(1 picture or pasted object on this page, not shown here)

Data set [9] has as its target T4, gp32 non-His-tagged;Dda-K38A (bacteriophage T4;bacteriophage T4, UniProt P03695;P32270 1-301;1-439, |K38A).
T4 sequence 1: T3 sequence 1
T4 sequence 2: T2 sequence 2
As to the kind of experiment: crystal structure; Zn2+; 4.98 A; 11 nt visible in one complex, 9 nt (Dda only) in the other; EMSA: 25 mM HEPES pH 7.5, 5 mM MgCl2, 0.1 mM EDTA, 2 mM 2-mercaptoethanol, 1 mg/ml BSA, 5% glycerol, 10 or 150 mM NaCl, room temperature (gel 4 C); gel filtration: 20 mM Tris-HCl pH 7.0, 200 mM NaCl (50 mM for crystallization), 0.5 mM EDTA, 5 mM 2-mercaptoethanol. As to conditions: protein: recombinant;recombinant; tags: none;6xHis (stated for SPR); copies: 1;1; single strand.

The target of data set [10] is T3, gp32 His-tagged;Dda-K38A. As to the kind of experiment: crystal structure; Zn2+; 6 A crystals, Zn SAD; EMSA: 25 mM HEPES pH 7.5, 5 mM MgCl2, 0.1 mM EDTA, 2 mM 2-mercaptoethanol, 1 mg/ml BSA, 5% glycerol, 10 or 150 mM NaCl, room temperature (gel 4 C); gel filtration: 20 mM Tris-HCl pH 7.0, 200 mM NaCl (50 mM for crystallization), 0.5 mM EDTA, 5 mM 2-mercaptoethanol. As to conditions: protein: recombinant;recombinant; tags: N-terminal 6xHis;6xHis (stated for SPR); copies: 1;1; single strand.

“Also recorded” adds a separate entry of the source.

By stoichiometry N is commonly meant the number of molecules, sites or subunits per partner or assembly.

For “240–253: synthetic peptide of gp32 C-terminus residues 240–253 (GTAVMGGAAATAAK)”, in data set [1], the “Binding to Dda-K38A/dT20 (in words)” value is given as “failed to bind; also recorded: showed no binding”.
“bacteriophage T4 gp32 single-stranded DNA-binding protein, full length, His-tagged (from UniProt P03695 1-301) (natural protein)” registered a stoichiometry N in [2] of 2.
For the molecule TTTTTTTT (ssDNA) [dT8], the binding result in data set [3] is recorded as “binds”.
Consider TTTTTTTTTTTTTTTT (ssDNA) [dT16], for which, in data set [4], the binding result is reported as “binds”.
Turning to TTTTTTTTTTTTTTTTTT (ssDNA) [dT18], the binding result in data set [5] is listed as “binds”.
On to TTTTTTTTTTTTTTTTTTTT (ssDNA) [dT20], for which the binding result in data set [6] is given as “binds”.

B1: wild-type gp32: bacteriophage T4 single-stranded DNA-binding protein, full length, N-terminal 6xHis-tag (protein)
chain: T3 sequence 1
modifications: left off: 6xHis, N-terminal, kept
As for B1, in data set [7] (5 mM Mg(OAc)2, pH 7.5, room temperature, fluorescein fluorescence), the “Rate constant of product formation (single exponential fit)” value was 0.023 s⁻¹. For the same molecule, the “Amplitude of the product formation curve (fluorescence)” value in data set [7] (higher amplitude = more effective prevention of reannealing) is 280 000. Moreover, in data set [8], the “Effect of gp32 on Dda binding to ssDNA (in words)” value is recorded as “increases the affinity of Dda for the ssDNA; also recorded: reduces the fraction of ssDNA bound by Dda”.
With TTTTTTTTTTTTTTTTT (ssDNA) [dT17], the binding result in data set [9] and in [10] was “binds” each time.
